From US20240287165A1 (GENERAL HOSPITAL, published 2024) come the findings set out here.

Assay [1] concerns the target ApoEch peptide KLH-…-CONH2 (human). The experiment in a line: ELISA, negative control. (In general: ELISA stands for enzyme-linked immunosorbent assay.)
The target of assay [2] is full-length ApoE3ch (ApoE3 Christchurch R136S) mutant recombinant protein (His-tagged) (human) (UniProt P02649). The experiment in a line: ELISA, negative control.
Assay [3] addresses full-length wild type human ApoE3 recombinant protein (His-tagged) (human) (UniProt P02649). The assay can be described thus: ELISA, negative control.
For assay [4], the target named is wild type ApoE peptide KLH-…-CONH2 (human). The experiment in a line: ELISA, negative control.
Assay [5] deals with T1, bovine serum albumin (BSA) (bovine, UniProt P02769 25-607). The experiment in a line: ELISA, BSA as control coat, antibody diluted 1:1000 to 1:32000, absorbance 450 nm; x axis counts the dilution factor.
Assay [6] concerns the target T1, bovine serum albumin (BSA). The assay is described as above. On the procedure: ELISA: Antibodies designed against the heparin-binding domain of ApoE were tested for their affinity to ApoE3 and ApoEch mutant recombinant proteins using ELISA. The Ni-NTA HisSorb Plates (Qiagen) were washed 3 times with wash buffer 1 (DY008). The ApoE recombinant proteins were suspended in buffer (DY008) to give a final concentration of 0.5 μg/ml. The plates were incubated with 200 μl of ApoE recombinant proteins for 2 hours, and washed 5 times with 1x wash buffer (DY008). The plates were then incubated with antibodies at a serial dilution of from 1:1,000 to 1:32,000 for overnight at 4° C. The plate was then washed 5 times in 1X wash buffer (DY008), and incubated with anti-mouse HRP (Abcam; ab97046, 1:10,000) for 45 minutes, followed by 5 washes in 1x wash buffer to ensure complete removal of unbound secondary antibody. The sulfuric acid from the ELISA reagent kit (DY008) was warmed to 37° C. […] The plate was then read using Synery 2 microplate reader (BioTek Instrument. Inc) and the Gen5 version1.11 software).
To generate monoclonal antibodies against the heparin-binding domain of ApoE, mice were immunized using the wild type ApoE peptide: KLH-[…]-CONH₂ (SEQ ID NO:54), and the ApoEch peptide: KLH-[…]-CONH₂ (SEQ ID NO:55). […] Seven antibodies generated were analyzed by ELISA as examples, as described in the materials and methods section.
This is another data set of the same source.

Assay [7] deals with T2, C-terminal wild type ApoE3 recombinant protein (human, UniProt P02649 143-317, limits assumed).
T2 construct: also called C-terminal form of wild type ApoE3; c-terminus of the APOE3WT protein; not shown: histidine tag
The assay can be described thus: ELISA, His-tagged ApoE protein on Ni-NTA plate, antibody diluted 1:1000 to 1:32000, absorbance 450 nm against dilution factor. On the procedure: Antibodies designed against the heparin binding domain of APOE were tested for affinity to APOE3 and APOEch mutant recombinant protein using an ELISA. The Ni-NTA HisSorb Plates (Qiagen) plates were washed 3 times with wash buffer 1 (DY008), the APOE recombinant proteins were suspended in buffer (DY008) to give a final concentration of 0.5 μg/ml. The plates were incubated with 200 μl for 2 hours. The plate was then washed 5 times with 1x wash buffer (DY008), the plates were then incubated with antibodies in a serial dilution series from 1:1000 to 1:32000 and incubated overnight at 4° C. The plate is then washed 5 times in 1X wash buffer (DY008). The plates were then incubated with Anti-mouse HRP (Abcam; ab97046) (1:10000) for 45 minutes. The plate was then washed 5 times in 1x wash buffer to ensure complete removal of unbound secondary antibody. The Sulfuric acid from the ELISA reagent kit (DY008) was warmed to 37° C. prior to addition of 100 μl of tetramethylbenzidine (Millipore) initiating the detection phase of the reaction. […] The plate was then read using Synery 2 microplate reader (BioTek Instrument. Inc) and the Gen5 version1.11 software).
The 19G10-2 antibody was further evaluated using Heparin-Affinity chromatography, Western Blotting, Quantitative ELISA for chromatography fractions, and ELISA for binding analyses. […]

Assay [8] has as its target T3, ApoEch peptide KLH-CTEELRVSLASHLRK-CONH2 (human, not fully specified; C-terminal amide (CONH2); printed with KLH on the added N-terminal cysteine).
T3 construct: also called Mut peptide; mutant ApoE peptide
T3 peptide: CTEELRVSLASHLRK
The experiment in a line: ELISA of the monoclonal antibody purified from cloned hybridoma, O.D. 450 nm against antibody concentration (ng/mL, log axis).

For assay [9], the target named is T4, full-length ApoE3ch (ApoE3 Christchurch R136S) mutant recombinant protein (His-tagged) (human, UniProt P02649 19-317).
T4 construct: also called ApoE3ch full length protein; APOE3ch Mutant; not shown: histidine tag
The experiment in a line: ELISA, His-tagged ApoE protein on Ni-NTA plate, antibody diluted 1:1000 to 1:32000, anti-mouse HRP, absorbance 450 nm; x axis (printed 'Antibody Concentation') counts the dilution factor. On the procedure:
(§1) ELISA: Antibodies designed against the heparin-binding domain of ApoE were tested for their affinity to ApoE3 and ApoEch mutant recombinant proteins using ELISA. The Ni-NTA HisSorb Plates (Qiagen) were washed 3 times with wash buffer 1 (DY008). The ApoE recombinant proteins were suspended in buffer (DY008) to give a final concentration of 0.5 μg/ml. The plates were incubated with 200 μl of ApoE recombinant proteins for 2 hours, and washed 5 times with 1x wash buffer (DY008). The plates were then incubated with antibodies at a serial dilution of from 1:1,000 to 1:32,000 for overnight at 4° C. The plate was then washed 5 times in 1X wash buffer (DY008), and incubated with anti-mouse HRP (Abcam; ab97046, 1:10,000) for 45 minutes, followed by 5 washes in 1x wash buffer to ensure complete removal of unbound secondary antibody. The sulfuric acid from the ELISA reagent kit (DY008) was warmed to 37° C. 100 μl of tetramethylbenzidine (Millipore) was added to initiate the detection phase of the reaction. After a 5-min incubation, sulfuric acid was added to terminate the reaction. The plate was then read using Synery 2 microplate reader (BioTek Instrument. Inc) and the Gen5 version1.11 software).
(§2) To generate monoclonal antibodies against the heparin-binding domain of ApoE, mice were immunized using the wild type ApoE peptide: KLH-[…]-CONH₂ (SEQ ID NO:54), and the ApoEch peptide: KLH-[…]-CONH₂ (SEQ ID NO:55). A cysteine residue was added at the N-terminus to facilitate conjugation of the peptides. Cell fusions were obtained from positive clones and cell supernatants tested for activity against the wild type and mutant peptides and proteins. Seven antibodies generated were analyzed by ELISA as examples, as described in the materials and methods section.

In assay [10] the target is T5, C-terminal domain ApoE3ch mutant recombinant protein (amino acids 125 to 299) (human, UniProt P02649 143-317).
T5 construct: also called C-terminal ApoE3ch mutant protein; APOE3 mutant c terminal protein; not shown: histidine tag
T5 chain: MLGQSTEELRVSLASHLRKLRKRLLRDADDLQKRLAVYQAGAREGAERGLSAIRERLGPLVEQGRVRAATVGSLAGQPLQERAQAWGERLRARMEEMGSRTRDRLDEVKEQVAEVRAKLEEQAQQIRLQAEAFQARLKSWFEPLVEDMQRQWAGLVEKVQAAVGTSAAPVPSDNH
Described as above. On the procedure:
as §1, §2

Assay [11] addresses T3, ApoEch peptide KLH-CTEELRVSLASHLRK-CONH2. The assay can be described thus: ELISA of the monoclonal antibody purified from cloned hybridoma, O.D. 450 nm against antibody concentration (ng/mL, log axis).
The target of assay [12] is T6, full-length wild type human ApoE3 recombinant protein (His-tagged) (human, UniProt P02649 19-317).
T6 construct: Recombinant protein from Innovagen; also called ApoE3 WT full-length protein; APOE3 WT; not shown: histidine tag
The experiment in a line: ELISA, parental hybridoma clone.

Assay [13] concerns the target T4, full-length ApoE3ch (ApoE3 Christchurch …). The experiment in a line: ELISA, parental hybridoma clone.
Assay [14] deals with T7, wild type ApoE peptide KLH-CTEELRVRLASHLRK-CONH2 (human, not fully specified; C-terminal amide (CONH2); printed with KLH on the added N-terminal cysteine).
T7 construct: also called WT peptide; ApoE3 WT peptide
T7 peptide: CTEELRVRLASHLRK
The experiment in a line: ELISA, parental hybridoma clone.

The target in assay [15] is T3, ApoEch peptide KLH-CTEELRVSLASHLRK-CONH2. The experiment in a line: ELISA, parental hybridoma clone.
For assay [16], the target named is T4, full-length ApoE3ch (ApoE3 Christchurch …). The experiment in a line: ELISA subclones analysis, 7C11-1 serum on mutant protein, O.D. 450 nm against dilution factor.

Where two headings read alike, the source gives them in different places.

T1 sequence (P02769 25-607 limits assumed): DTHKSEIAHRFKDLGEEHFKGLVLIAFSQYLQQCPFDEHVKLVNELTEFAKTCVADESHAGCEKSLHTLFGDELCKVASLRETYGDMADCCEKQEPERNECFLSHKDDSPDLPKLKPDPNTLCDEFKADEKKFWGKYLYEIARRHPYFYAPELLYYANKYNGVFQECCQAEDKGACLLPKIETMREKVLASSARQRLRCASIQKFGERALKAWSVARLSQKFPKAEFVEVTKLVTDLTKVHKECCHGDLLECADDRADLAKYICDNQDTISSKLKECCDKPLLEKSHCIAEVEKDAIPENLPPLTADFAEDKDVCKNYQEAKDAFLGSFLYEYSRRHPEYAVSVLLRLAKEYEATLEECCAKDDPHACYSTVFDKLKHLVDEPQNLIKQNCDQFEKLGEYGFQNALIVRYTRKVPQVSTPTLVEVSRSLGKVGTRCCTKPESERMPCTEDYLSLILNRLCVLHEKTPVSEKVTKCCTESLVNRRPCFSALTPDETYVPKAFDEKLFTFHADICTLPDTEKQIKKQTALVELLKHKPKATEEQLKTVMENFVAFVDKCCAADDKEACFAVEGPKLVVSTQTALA

As for Neg. ctrl (Table 6), the absorbance (ELISA) in assay [1] is 0.056 absorbance; in assay [2] it was 0.048 absorbance; in assay [3], 0.051 absorbance; in assay [4], 0.068 absorbance.

B1: mouse antibody 1343ab (antibody, mouse IgG1, kappa, V domains shown)
VH: EVQLQQSGAELVRPGALVKLSCKASGFNIKDYHLHWVKQRPEQGLEWIGWIDPENGNVIYDPKFQGKATMTVVTSSNTAYLQLRSLTSEDTAVYFCTRGTARASFDYWGQGTSLTVSS
VL: DIVLTQSPASLAVSLGQRATISCKASQSVDYDGENYMNWYQQKPGQSPKLLIYVASNLESGIPARFSGSGSGTDFTLNIHPVEEEDAATYYCQQSNLDPWTFGGGTKLEIKR
modifications: N-linked glycosylation detected on heavy chain constant region N at 292; loss of C-terminal lysine observed
notes: also called 23B2
Consider B1, for which, in assay [5], the binding result is listed as “no binding (tested: 1:1000 dilution)”.

B2: antibody 19G10-2 (antibody, V domains shown)
VH: EVQLQQSGAELVRPGALVKLSCKASGFNIKDYHMHWVKERPEQGLEWIGWIDPENGNTMYDPKFQGKASITADTSSNTAYLQLSSLTSEDTAVYYCVRGTARASFDYWGQGTTLTVSS
VL: DIVLTQSPASLAVSLGQRATISCKASQSVDYDGDSYMNWYQQKSGQPPKLLIYAASNLESGIPARFSGSGSGTDFTLNIHPVEEEDAATYYCQQSNVDPWTFGGGTKLEIK
notes: Tested as serum, as hybridoma supernatant and as purified monoclonal; also called 19G10-2 antibody serum; monoclonal antibody hybridoma supernatant 19G10-2
Consider B2, for which the binding result in assay [6] is reported as “no binding (tested: 1:1000 dilution)”; in [7] it was “no binding (tested: 1:1000 dilution)”; in assay [8], “binds”; in assay [9], “binds”; in [10], “binds”.

B3: antibody 25F1-2 (antibody, V domains shown)
VH: EVQLQQSGAELVRPGALVKWSCKASGFNIKDYHIHWVKQRPEQGLDWIGWIDPEIDKTLYDPKFQGKARITADTSSNTAYLQLSSLTSEDTAVYYCARGTARASFDYWGQGTTLTVSS
VL: DIVLTQSPASLAVSLGQRATISCKASQSVDYDGDTYMNWYQQKPGQPPKLLIYTASNLESGIPARFSGSGSGTDFTLNIHPVEEVDAATYYCQQSNEDPWTFGGGTKLEIK
notes: also called 25F1-2 antibody serum; monoclonal antibody hybridoma supernatant 25F1-2
Consider B3, for which the binding result in [6] is “no binding (tested: 1:1000 dilution)”; in assay [11], “binds”; in assay [9], “binds”; in assay [10] it was “binds”.

B4: antibody 7C11-1 (antibody, V domains shown)
VH: EVKLVESGGGLVQPGGSLKLSCAASGFTFSRYTMSWVRQTPEKRLEWVAKIRNVGGITYYPDTVKGRFTISRDNAKNTLYLQMSSLKSEDTAMYYCARHYYGSEDYFDYWGQGTTLTVSS
VL: DNVLTQSPASLAVSLGQRATISCKASQSVDYDGDSYMNWYQQKPGQPPKVFIYAASNLESGIPARFSGSGSGTNFTLNIHPVEEEDAATYYCQQSNEDPWTFGGGTKLEIK
notes: The limits without signal peptide (20-139, 21-131) come from CLM-00005; also called 7C11-1 serum
As to B4, the “absorbance (ELISA)” value is 0.689 absorbance in assay [12], 0.055 absorbance in assay [13], 1.28 absorbance in assay [14] and 0.058 absorbance in assay [15]. Moreover, the binding result in assay [16] was “no binding (tested: 1:10 dilution)”.
